This passage reports High affinity state Ki of (-)-isoproterenol, [3H]-DHA competition binding, β2AR-T4L in HDL particles + 1 µM NB80 (β2AR-T4L alone: 33.5) and fold increase of the affinity of isoproterenol results from patent publication US20130137856A1, “PROTEIN BINDING DOMAINS STABILIZING FUNCTIONAL CONFORMATIONAL STATES OF GPCRS AND USES THEREOF” (priority 2010, published 2013).

For the assay, the target named is β2AR-T4L (β2AR with the third intracellular loop replaced by T4 lysozyme, truncated at position 365) (human) (UniProt P07550). Description: cell-based or functional assay.

B1: Nanobody-80 (Nb80) (VHH, not shown: small tags and cut ends)
VHH: QVQLQESGGGLVQAGGSLRLSCAASGSIFSINTMGWYRQAPGKQRELVAAIHSGGSTNYANSVKGRFTISRDNAANTVYLQMNSLKPEDTAVYYCNVKDYGAVLYEYDYWGQGTQVTVSS
For B1, the High affinity state Ki of (-)-isoproterenol, [3H]-DHA competition binding, β2AR-T4L in HDL particles + 1 µM NB80 (β2AR-T4L alone: 33.5) amounted to 560 pM and the fold increase of the affinity of isoproterenol is 60 fold.
